Article PMC2946933

Target: Hfq K56A K56A (UniProt P0A6X3)
Assay: SPR
Details: EMSA: 50 mM Tris-HCl pH 7.5, 100 mM KCl, 10 mM MgCl2, room temperature, SPR: same buffer, 25 C, Tb footprinting: 50 mM Tris-HCl pH 8.0, 100 mM NaCl

GCAGCGUUACAUUCCCAUCCACUGGGGAAAGACGCGGCGCUGAUUGGUGAAGUGGUGGAACGUAAAGGUGUUCGUCUUGCCGGUCUGUAUGGCGUGAAACGAACCCUCGAUUUACCACACGCCGAACCGCUUCCGCGUAUAUGCUAAUAAAAUUCUAAAUCUCCUAUAGUUAGUCAAUGACCUUUUGCACCGCUUUGCGGUGCUUUCCUGGAAGAACAAAAUGUCAUAUACACCGAUGAGUGAUCUCGGACAACAAGGGUUGUUCGACAUCACUCGGACAAAUAUUGGAUCCGCUCGG [fhlA220 mRNA]
Kd: 3 nM
